From patent US20180009871A1 (INTARCIA THERAPEUTICS, published 2018)
Where no end group is shown, it is not given here. [ ]: non-standard residue; d: D form. Aib = CC(C)(N)C(=O)O

B1: Compound A100 (peptide)
peptide: YSHGTFTSDYSKYLD[Aib]KRAQEFV[Aib]WLEDE-OH
modifications: N-terminus assumed
SMILES: CC(C)C[C@H](NC(=O)[C@H](Cc1ccc(O)cc1)NC(=O)[C@H](CCCCN)NC(=O)[C@H](CO)NC(=O)[C@H](Cc1ccc(O)cc1)NC(=O)[C@H](CC(=O)O)NC(=O)[C@H](CO)NC(=O)[C@@H](NC(=O)[C@H](Cc1ccccc1)NC(=O)[C@@H](NC(=O)CNC(=O)[C@H](Cc1c[nH]cn1)NC(=O)[C@H](CO)NC(=O)[C@@H](N)Cc1ccc(O)cc1)[C@@H](C)O)[C@@H](C)O)C(=O)N[C@@H](CC(=O)O)C(=O)NC(C)(C)C(=O)N[C@@H](CCCCN)C(=O)N[C@@H](CCCNC(=N)N)C(=O)N[C@@H](C)C(=O)N[C@@H](CCC(N)=O)C(=O)N[C@@H](CCC(=O)O)C(=O)N[C@@H](Cc1ccccc1)C(=O)N[C@H](C(=O)NC(C)(C)C(=O)N[C@@H](Cc1c[nH]c2ccccc12)C(=O)N[C@@H](CC(C)C)C(=O)N[C@@H](CCC(=O)O)C(=O)N[C@@H](CC(=O)O)C(=O)N[C@@H](CCC(=O)O)C(=O)O)C(C)C
B2: Compound A85 (peptide)
peptide: YSHGTFTSDYSKYLD[Aib]KRAQEFV[Aib]WLEDEPSSGKPPPS-NH2
modifications: N-terminus assumed
SMILES: CC(C)C[C@H](NC(=O)[C@H](Cc1ccc(O)cc1)NC(=O)[C@H](CCCCN)NC(=O)[C@H](CO)NC(=O)[C@H](Cc1ccc(O)cc1)NC(=O)[C@H](CC(=O)O)NC(=O)[C@H](CO)NC(=O)[C@@H](NC(=O)[C@H](Cc1ccccc1)NC(=O)[C@@H](NC(=O)CNC(=O)[C@H](Cc1c[nH]cn1)NC(=O)[C@H](CO)NC(=O)[C@@H](N)Cc1ccc(O)cc1)[C@@H](C)O)[C@@H](C)O)C(=O)N[C@@H](CC(=O)O)C(=O)NC(C)(C)C(=O)N[C@@H](CCCCN)C(=O)N[C@@H](CCCNC(=N)N)C(=O)N[C@@H](C)C(=O)N[C@@H](CCC(N)=O)C(=O)N[C@@H](CCC(=O)O)C(=O)N[C@@H](Cc1ccccc1)C(=O)N[C@H](C(=O)NC(C)(C)C(=O)N[C@@H](Cc1c[nH]c2ccccc12)C(=O)N[C@@H](CC(C)C)C(=O)N[C@@H](CCC(=O)O)C(=O)N[C@@H](CC(=O)O)C(=O)N[C@@H](CCC(=O)O)C(=O)N1CCC[C@H]1C(=O)N[C@@H](CO)C(=O)N[C@@H](CO)C(=O)NCC(=O)N[C@@H](CCCCN)C(=O)N1CCC[C@H]1C(=O)N1CCC[C@H]1C(=O)N1CCC[C@H]1C(=O)N[C@@H](CO)C(N)=O)C(C)C
B3: Compound A99 (peptide)
peptide: YSHGTFTSDYSKYLD[Aib]KRAQEFV[Aib]WLEDEPSSGAPPPS-OH
modifications: N-terminus assumed
SMILES: CC(C)C[C@H](NC(=O)[C@H](Cc1ccc(O)cc1)NC(=O)[C@H](CCCCN)NC(=O)[C@H](CO)NC(=O)[C@H](Cc1ccc(O)cc1)NC(=O)[C@H](CC(=O)O)NC(=O)[C@H](CO)NC(=O)[C@@H](NC(=O)[C@H](Cc1ccccc1)NC(=O)[C@@H](NC(=O)CNC(=O)[C@H](Cc1c[nH]cn1)NC(=O)[C@H](CO)NC(=O)[C@@H](N)Cc1ccc(O)cc1)[C@@H](C)O)[C@@H](C)O)C(=O)N[C@@H](CC(=O)O)C(=O)NC(C)(C)C(=O)N[C@@H](CCCCN)C(=O)N[C@@H](CCCNC(=N)N)C(=O)N[C@@H](C)C(=O)N[C@@H](CCC(N)=O)C(=O)N[C@@H](CCC(=O)O)C(=O)N[C@@H](Cc1ccccc1)C(=O)N[C@H](C(=O)NC(C)(C)C(=O)N[C@@H](Cc1c[nH]c2ccccc12)C(=O)N[C@@H](CC(C)C)C(=O)N[C@@H](CCC(=O)O)C(=O)N[C@@H](CC(=O)O)C(=O)N[C@@H](CCC(=O)O)C(=O)N1CCC[C@H]1C(=O)N[C@@H](CO)C(=O)N[C@@H](CO)C(=O)NCC(=O)N[C@@H](C)C(=O)N1CCC[C@H]1C(=O)N1CCC[C@H]1C(=O)N1CCC[C@H]1C(=O)N[C@@H](CO)C(=O)O)C(C)C
B4: Compound A103 (peptide)
peptide: YSHGTFTSDYSKYLD[Aib]ARAQEFV[Aib]WLEDEPSSGAPPPS-OH
modifications: N-terminus assumed
SMILES: CC(C)C[C@H](NC(=O)[C@H](Cc1ccc(O)cc1)NC(=O)[C@H](CCCCN)NC(=O)[C@H](CO)NC(=O)[C@H](Cc1ccc(O)cc1)NC(=O)[C@H](CC(=O)O)NC(=O)[C@H](CO)NC(=O)[C@@H](NC(=O)[C@H](Cc1ccccc1)NC(=O)[C@@H](NC(=O)CNC(=O)[C@H](Cc1c[nH]cn1)NC(=O)[C@H](CO)NC(=O)[C@@H](N)Cc1ccc(O)cc1)[C@@H](C)O)[C@@H](C)O)C(=O)N[C@@H](CC(=O)O)C(=O)NC(C)(C)C(=O)N[C@@H](C)C(=O)N[C@@H](CCCNC(=N)N)C(=O)N[C@@H](C)C(=O)N[C@@H](CCC(N)=O)C(=O)N[C@@H](CCC(=O)O)C(=O)N[C@@H](Cc1ccccc1)C(=O)N[C@H](C(=O)NC(C)(C)C(=O)N[C@@H](Cc1c[nH]c2ccccc12)C(=O)N[C@@H](CC(C)C)C(=O)N[C@@H](CCC(=O)O)C(=O)N[C@@H](CC(=O)O)C(=O)N[C@@H](CCC(=O)O)C(=O)N1CCC[C@H]1C(=O)N[C@@H](CO)C(=O)N[C@@H](CO)C(=O)NCC(=O)N[C@@H](C)C(=O)N1CCC[C@H]1C(=O)N1CCC[C@H]1C(=O)N1CCC[C@H]1C(=O)N[C@@H](CO)C(=O)O)C(C)C
B5: Compound A101 (peptide)
peptide: YGHGTFTSDHSKYLD[Aib]KRAQEFVKWLEDE-OH
modifications: N-terminus assumed
SMILES: CC(C)C[C@H](NC(=O)[C@H](Cc1c[nH]c2ccccc12)NC(=O)[C@H](CCCCN)NC(=O)[C@@H](NC(=O)[C@H](Cc1ccccc1)NC(=O)[C@H](CCC(=O)O)NC(=O)[C@H](CCC(N)=O)NC(=O)[C@H](C)NC(=O)[C@H](CCCNC(=N)N)NC(=O)[C@H](CCCCN)NC(=O)C(C)(C)NC(=O)[C@H](CC(=O)O)NC(=O)[C@H](CC(C)C)NC(=O)[C@H](Cc1ccc(O)cc1)NC(=O)[C@H](CCCCN)NC(=O)[C@H](CO)NC(=O)[C@H](Cc1c[nH]cn1)NC(=O)[C@H](CC(=O)O)NC(=O)[C@H](CO)NC(=O)[C@@H](NC(=O)[C@H](Cc1ccccc1)NC(=O)[C@@H](NC(=O)CNC(=O)[C@H](Cc1c[nH]cn1)NC(=O)CNC(=O)[C@@H](N)Cc1ccc(O)cc1)[C@@H](C)O)[C@@H](C)O)C(C)C)C(=O)N[C@@H](CCC(=O)O)C(=O)N[C@@H](CC(=O)O)C(=O)N[C@@H](CCC(=O)O)C(=O)O
B6: Compound A102 (peptide)
peptide: YSHGTFTSDYSKWLD[Aib]KRAQEFVKWLEDE-OH
modifications: N-terminus assumed
SMILES: CC(C)C[C@H](NC(=O)[C@H](Cc1c[nH]c2ccccc12)NC(=O)[C@H](CCCCN)NC(=O)[C@@H](NC(=O)[C@H](Cc1ccccc1)NC(=O)[C@H](CCC(=O)O)NC(=O)[C@H](CCC(N)=O)NC(=O)[C@H](C)NC(=O)[C@H](CCCNC(=N)N)NC(=O)[C@H](CCCCN)NC(=O)C(C)(C)NC(=O)[C@H](CC(=O)O)NC(=O)[C@H](CC(C)C)NC(=O)[C@H](Cc1c[nH]c2ccccc12)NC(=O)[C@H](CCCCN)NC(=O)[C@H](CO)NC(=O)[C@H](Cc1ccc(O)cc1)NC(=O)[C@H](CC(=O)O)NC(=O)[C@H](CO)NC(=O)[C@@H](NC(=O)[C@H](Cc1ccccc1)NC(=O)[C@@H](NC(=O)CNC(=O)[C@H](Cc1c[nH]cn1)NC(=O)[C@H](CO)NC(=O)[C@@H](N)Cc1ccc(O)cc1)[C@@H](C)O)[C@@H](C)O)C(C)C)C(=O)N[C@@H](CCC(=O)O)C(=O)N[C@@H](CC(=O)O)C(=O)N[C@@H](CCC(=O)O)C(=O)O

These binders were tested against human GLP-1 receptor (GLP-1R) (human, UniProt P43220 24-463) (assay: cell-based or functional assay).
Sequence of human GLP-1 receptor (GLP-1R) (P43220 24-463): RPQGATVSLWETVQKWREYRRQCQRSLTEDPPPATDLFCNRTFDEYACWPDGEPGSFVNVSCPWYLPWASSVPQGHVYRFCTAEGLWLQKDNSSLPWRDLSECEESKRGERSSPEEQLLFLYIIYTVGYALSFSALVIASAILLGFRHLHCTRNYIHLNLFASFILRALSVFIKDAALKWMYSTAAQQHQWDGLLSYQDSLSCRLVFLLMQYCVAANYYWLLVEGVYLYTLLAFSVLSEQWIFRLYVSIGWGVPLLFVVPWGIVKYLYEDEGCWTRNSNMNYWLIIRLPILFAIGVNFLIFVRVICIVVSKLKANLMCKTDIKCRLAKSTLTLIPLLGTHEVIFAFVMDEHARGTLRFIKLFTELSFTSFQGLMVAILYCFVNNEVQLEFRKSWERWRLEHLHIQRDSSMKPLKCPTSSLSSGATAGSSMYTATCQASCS

| Binder | hGLP1 pEC50 (cAMP) |
| --- | --- |
| B1 | < 9 pEC50 |
| YSHGTFTSDYSKYLD[Aib]KRAQEFV[Aib]WLEDEKSSGKPPPS [Compound A87] | < 9 pEC50 |
| YSHGTFTSDYSKYLD[Aib]KRAQEFV[Aib]HLEDEPSSGKPPPS [Compound A89] | < 9 pEC50 |
| B2 | < 9 pEC50 |
| YSHGTFTSDYSKYLD[Aib]KAAQEFV[Aib]WLEDEPSSGKPPPS [Compound A90] | < 9 pEC50 |
| YSQGTFTSDYSKYLD[Aib]KRAQEFV[Aib]WLEDEPSSGKPPPS [Compound A86] | < 9 pEC50 |
| WSQGTFTSDYSKYLD[Aib]KRAQEFV[Aib]WLEDEPSSGKPPPS [Compound A91] | < 9 pEC50 |
| B3 | < 9 pEC50 |
| B4 | < 9 pEC50 |
| YSHGTFTSDYSKYLD[Aib]KRAQEFV[Aib]WLEDEPSSGKKPPS [Compound A88] | < 9 pEC50 |
| YSHGTFTSDYSKYLDAARAQEFVKWLEDEPKSKSPPPS-NH2 [Compound A80] | < 9 pEC50 |
| WSQGTFTSDYSKYLD[Aib]KAAQEFV[Aib]WLEDEPSSGKPPPS [Compound A93] | < 9 pEC50 |
| YSQGTFTSDYSKYLDSARAQEFVKWLEDEPKSKSPPPS [Compound A81] | < 9 pEC50 |
| YSHGTFTSDYSKYLDSARAQEFTKWLEDEPKSKSPPPS [Compound A83] | < 9 pEC50 |
| YSQGTFTSDYSKYLDSARAQEFVKWLEDEPKSKAPPPS [Compound A82] | < 9 pEC50 |
| YSHGTFTSDYSKYLDSARAQEFVKHLEDEPKSKSPPPS [Compound A84] | < 9 pEC50 |
| WSQGTFTSDYSKYLD[Aib]KAAQEFV[Aib]WLEDEPSSGAPPPS [Compound A92] | < 9 pEC50 |
| B5 | < 9 pEC50 |
| B6 | < 9 pEC50 |

What follows are binders tested against human glucagon receptor (GCGR) (human, UniProt P47871 26-477) (assay: cell-based or functional assay).

| Binder | hGCGR pEC50 (cAMP) |
| --- | --- |
| YSHGTFTSDYSKYLD[Aib]KRAQEFV[Aib]WLEDEKSSGKPPPS [Compound A87] | 13.6 pEC50 |
| YSHGTFTSDYSKYLD[Aib]KRAQEFV[Aib]HLEDEPSSGKPPPS [Compound A89] | 12.7 pEC50 |
| B2 | 13.6 pEC50 |
| YSHGTFTSDYSKYLD[Aib]KAAQEFV[Aib]WLEDEPSSGKPPPS [Compound A90] | 13.1 pEC50 |
| YSQGTFTSDYSKYLD[Aib]KRAQEFV[Aib]WLEDEPSSGKPPPS [Compound A86] | 13.3 pEC50 |
| WSQGTFTSDYSKYLD[Aib]KRAQEFV[Aib]WLEDEPSSGKPPPS [Compound A91] | 12.8 pEC50 |
| YSHGTFTSDYSKYLD[Aib]KRAQEFV[Aib]WLEDEPSSGKKPPS [Compound A88] | 13.8 pEC50 |
| YSHGTFTSDYSKYLDAARAQEFVKWLEDEPKSKSPPPS-NH2 [Compound A80] | 12.5 pEC50 |
| WSQGTFTSDYSKYLD[Aib]KAAQEFV[Aib]WLEDEPSSGKPPPS [Compound A93] | 10.9 pEC50 |
| YSQGTFTSDYSKYLDSARAQEFVKWLEDEPKSKSPPPS [Compound A81] | 11 pEC50 |
| YSHGTFTSDYSKYLDSARAQEFTKWLEDEPKSKSPPPS [Compound A83] | 10.2 pEC50 |
| YSQGTFTSDYSKYLDSARAQEFVKWLEDEPKSKAPPPS [Compound A82] | 11 pEC50 |
| YSHGTFTSDYSKYLDSARAQEFVKHLEDEPKSKSPPPS [Compound A84] | 9.4 pEC50 |
| WSQGTFTSDYSKYLD[Aib]KAAQEFV[Aib]WLEDEPSSGAPPPS [Compound A92] | 10.7 pEC50 |
